T1: human IL-33 (R&D Systems, #3625-IL-010/CF) (human) (UniProt O95760)
T1 sequence (looked up): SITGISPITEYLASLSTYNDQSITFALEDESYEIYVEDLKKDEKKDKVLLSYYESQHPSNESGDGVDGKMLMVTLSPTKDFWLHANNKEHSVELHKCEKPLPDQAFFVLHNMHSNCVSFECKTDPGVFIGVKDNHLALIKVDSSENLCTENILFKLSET

T2: biotinylated human IL-33 (human) (UniProt O95760)
T2 sequence (biotin-labeled with EZ-LINK NHS-PEG4-Biotin, looked up): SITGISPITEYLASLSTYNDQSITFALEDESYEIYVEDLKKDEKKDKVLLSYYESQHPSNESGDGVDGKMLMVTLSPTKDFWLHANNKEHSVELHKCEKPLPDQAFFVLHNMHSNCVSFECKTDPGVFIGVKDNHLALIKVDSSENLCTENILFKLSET


Key:
[1] = biological target: T1, human IL-33 (R&D Systems, #3625-IL-010/CF) (human)
[2] = biological target: T1, human IL-33 (R&D Systems, #3625-IL-010/CF) (human); remark: listed apart in the source
[3] = biological target: T1, human IL-33 (R&D Systems, #3625-IL-010/CF) (human); remark: listed apart in the source
[4] = biological target: T1, human IL-33 (R&D Systems, #3625-IL-010/CF) (human); remark: listed apart in the source
[5] = biological target: T1, human IL-33 (R&D Systems, #3625-IL-010/CF) (human); remark: listed apart in the source
[6] = biological target: T1, human IL-33 (R&D Systems, #3625-IL-010/CF) (human); assay: SPR Biacore T200, 25 C
[7] = biological target: T1, human IL-33 (R&D Systems, #3625-IL-010/CF) (human); assay: SPR Biacore T200, 37 C
[8] = biological target: T2, biotinylated human IL-33 (human); assay: competitive ELISA, biotin-huIL-33 to coated hST2-Fc
[9] = biological target: T1, human IL-33 (R&D Systems, #3625-IL-010/CF) (human); assay: cell-based or functional assay
[10] = biological target: T1, human IL-33 (R&D Systems, #3625-IL-010/CF) (human); remark: listed apart in the source

Row | Binder | IC50; SEAP reporter (OD 620), HEK-BLUE IL-33/IL-1beta cells, 10 pM hIL-33 [1] [M] | IC50, IL-33-induced phospho-p38 in primary human basophils, 500 pM hIL-33 [2] [M] | IC50 (read off the curve) [3] [pM] | Ph-p38 MFI at 0.4 nM Ab (500 pM human IL-33, primary basophils) [4] [MFI] | Ph-p38 MFI at 2 nM Ab (500 pM human IL-33, primary basophils) [5] [MFI] | Kd [6] [pM] | koff [6] [s⁻¹] | kon [6] [M⁻¹ s⁻¹] | t1/2 [6] [min] | Kd [7] [pM] | koff [7] [s⁻¹] | kon [7] [M⁻¹ s⁻¹] | t1/2 [7] [min] | IC50 [8] [pM] | Maximum Blocking [8] [%] | HEK-BLUE SEAP reporter IC50 [9] [pM] | IFN-γ secretion from primary NK cells, IC50 [9] [pM] | phospho-p38 in primary basophils, IC50 [9] [pM] | IC50; IFN-gamma ELISA, primary human NK cells, 260 pM hIL-33 + IL-12 [10] [M]
1 | H4H9672P (antibody, from another filing, IgG4, V domains shown) VH: EVQLVESGGGLVQPGGSLRLSCAASGFTLRSYVMYWVRQGPGKGLEGVSGISGSSGGTYYTDSVKGRFTISRDNSKNTLFLQMNSLRAEDTAVYFCARSVYSTTWYGGFQHWGQGTLVTVSS VL: DIQMTQSPSSVSVSVGDRVTITCRASQVISSWLAWYQLKPGKAPKLLIYAASSLQSGVPSRFSGSGSGTDFTLTISGLQPEDFAVYYCQQTNSFPLTFGGGTKVEIK | 9.8e-10 | 5.7e-13 | 0.6 | 113 | 61 | 839 | 0.000806 | 960000 | 14 | 531 | 0.00127 | 2.39e+06 | 9 | 220 | 77 | – | – | – | –
2 | H4H9675P (antibody, from another filing, IgG4, V domains shown) VH: EVQLVESGGNLEQPGGSLRLSCTASGFTFSRSAMNWVRRAPGKGLEWVSGISGSGGRTYYADSVKGRFTISRDNSKNTLYLQMNSLSAEDTAAYYCAKDSYTTSWYGGMDVWGHGTTVTVSS VL: DIQMTQSPSSVSASVGDRVTITCRASQGIFSWLAWYQQKPGKAPKLLIYAASSLQSGVPSRFSGSGSGTDFTLTISSLQPEDFAIYYCQQANSVPITFGQGTRLEIK | – | 3.5e-13 | – | 48 | 30 | 391 | 0.000637 | 1.63e+06 | 18 | 192 | 0.000779 | 4.06e+06 | 15 | 63 | 84 | 11 | 97 | 0.38 | –
3 | H4H9664P (antibody, from another filing, IgG4, V domains shown) VH: QVQLVESGGGVVQPGRSLRLSCAASGFTFSSYGLHWVRQSPGKGLEWVALISYDGSNKYYADSVKGRFTISRDNSKNTLYLQMNSLRPEDTAGYFCAKSLYTTSWYGGFDYWGQGTLVTVSS VL: DIQMTQSPSSVSASVGDRVTITCRASQGIRSWLAWYQQKPGKAPNLLIYAASSLQSGVPSRFSGSGSGTDFTLTISSLQPEDFATYYCQQANSFPPTFGPGTKVDIK | 1.5e-10 | – | – | 63 | 40 | 1310 | 0.000445 | 339000 | 26 | 674 | 0.000531 | 789000 | 22 | 190 | 87 | – | – | 0.14 | –
4 | H4H9671P (antibody, from another filing, IgG4, V domains shown) VH: EVQLVESGGGLVQPGGSLRLSCAASGFTLRSYFMTWVRQVPGKGLEGVSAISGISGGTYYTDSVKGRFTISRDNSKNTLFLQMNSLRAEDTAVYFCARTVYSSSYYGGFQHWGQGTLVTVSS VL: DIQMTQSPSSVSVSVGDRVTITCRASQGISSWLAWYQQKPGKAPKLLIYVASSLQSGVPSRFSGSGSGTDFTLTISSLQPEDFATYYCQQTNSFPLTFGGGTKVEIK | 5.7e-10 | 2.3e-12 | 2 | 122 | 83 | 736 | 0.000963 | 1.31e+06 | 12 | 552 | 0.00203 | 3.68e+06 | 6 | 96 | 77 | – | – | – | –
5 | H4H9666P (antibody, from another filing, IgG4, V domains shown) VH: QVQLVQSGAEVKKPGASVKVSCKASGYTFTSYGISWVRQAPGQGLEWMGWIRAYNGYTNYAQKFQGRVTMTTDTSTNTAYMELRTLNSDDTAVYYCARDRYSGSFHGNFDYWGQGTLVTVSS VL: DIQMTQSPSSVSASVGDRVTITCRASQGIFSWLAWYQQKPGKAPKVLIYAASNLESGVPSRFSGSGSGTDFTLTISSLQPEDFATYYCQQANSLPLTFGGGTKVEIK | 7.1e-10 | 7.6e-06 | – | 90 | 71 | 1740 | 0.00115 | 665000 | 10 | 934 | 0.00158 | 1.69e+06 | 7 | 210 | 81 | – | – | – | 1e-08
6 | H4H9670P (antibody, from another filing, IgG4, V domains shown) VH: EVQLVESGGGLVQPGGSLRLSCAASGFTLSSYAMSWVRQAPGKGLEWVSAISGSGGSTYYADSVKGRFTISRDNSKNSLYLQLNSLRAEDTAVYYCAKTLYTTSWYGGFQHWGQGTLVTVSS VL: DIQMTQSPSSVSASIGDRVTITCRASQGISSWLAWYQQKPGKVPKLLIYAASSLQSGFPSRFSGSGSGTDFTLTISSLQPEDFATYYCQQTHSFPWTVGQGTKVEIK | 2.6e-09 | – | – | 118 | 90 | 761 | 0.000517 | 680000 | 22 | 519 | 0.000663 | 1.28e+06 | 17 | 420 | 80 | – | – | – | –
7 | H4H9663P (antibody, from another filing, IgG4, V domains shown) VH: QVQLVQSGAEVKKPGASVKVSCKASGYTFTGHYMYWMRQAPGQGLEWMGWINPNSGGTNYAQKFQDRVTMTRDTSISTAYMELSRLRSDDTAVYYCARGRYGSSWYGGFEYWGQGTLVTVSS VL: DIQMTQSPSSVSASVGDRVTITCRASQGITSWLAWYQQKPGKAPNLLIYAAASLQSGVPSRFSGSGSGTDFTLTISSLQPEDFTTYYCQQAYSLPLTFGGGTKVEIK | 1.5e-09 | – | – | 123 | 80 | 558 | 0.000937 | 1.68e+06 | 12 | 517 | 0.00161 | 3.11e+06 | 7 | 440 | 82 | – | – | – | 4.6e-09
8 | H4H9662P (antibody, from another filing, IgG4, V domains shown) VH: EVQLVESGGGLVQPGGSLRLSCAASGFTFSSYALTWVRQAPGKGLEWVSFISGSGGRPFYADSVKGRFTISRDNSKNMLYLQMNSLRAEDTAIYYCAKSLYTTSWYGGFDSWGQGTLVTVSS VL: DIQMTQSPSSVSASVGDRVTITCRASQGVVSWLAWYQQKPGKAPKLLIYAASSLQSGVPSRFSGSGSGTDFTLTISSLQPEDFATYYCQQSNSFPFTLGPGTKVDIK | 1.5e-10 | 2.5e-09 | – | 86 | 44 | 527 | 0.000459 | 871000 | 25 | 242 | 0.000566 | 2.34e+06 | 20 | 250 | 85 | – | – | – | 1.2e-09
9 | H4H9665P (antibody, from another filing, IgG4, V domains shown) VH: EVQLVESGGGLVQPGGSLRLSCAASGFTFSNYAMTWVRQAPGKGLEWVSTISGSGDNTYYADSVQGRFTISRGHSKNTLYLQMNSLRAEDTAVYYCAKPTYSRSWYGAFDFWGQGTMVTVSS VL: DIQMTQSPSSVSASVGDRVTITCRASQGISSWLAWYQQKPGKAPQLLIYAASRLQSGVPSRFWGSGSGTDFTLTISSLQPEDFATYYCQQANNFPFTFGPGTKVDIK | 1.1e-09 | 2.4e-09 | – | 106 | 105 | 1250 | 0.00116 | 931000 | 10 | 1000 | 0.00235 | 2.35e+06 | 5 | 700 | 63 | – | – | – | –

From US20190092852A1
